Test results reported in the Immune Epitope Database (IEDB).
One block for each sequence: values may come before it.

Key:
HLA-C*01:02 = experiment: IEDB peptide-MHC binding, purified MHC/direct/fluorescence; filed as Kd, often an IC50 or EC50 that approximates it; ≥ and ≤ were set here for values at or beyond the usual limits of such assays; settings: source organism: Homo sapiens
HLA-A*24:02 [1] = experiment: IEDB peptide-MHC binding, cellular MHC/competitive/fluorescence; ≥ and ≤ were set here for values at or beyond the usual limits of such assays; settings: source organism: Human herpesvirus 5 strain AD169
HLA-A*32:15 = experiment: IEDB peptide-MHC binding, purified MHC/competitive/fluorescence; filed as Kd, often an IC50 or EC50 that approximates it; ≥ and ≤ were set here for values at or beyond the usual limits of such assays; settings: source organism: Rickettsia felis URRWXCal2
HLA-B*15:42 = experiment: as above; settings: source organism: Rickettsia felis URRWXCal2
HLA-B*46:01 = experiment: as above; settings: source organism: Rickettsia felis URRWXCal2
HLA-B*15:02 = experiment: as above; settings: source organism: Rickettsia felis URRWXCal2
HLA-C*14:02 = experiment: as above; settings: source organism: Rickettsia felis URRWXCal2
HLA-B*83:01 = experiment: as above; settings: source organism: Rickettsia felis URRWXCal2
HLA-B*27:20 = experiment: as above; settings: source organism: Rickettsia felis URRWXCal2
HLA-A*32:07 = experiment: as above; settings: source organism: Rickettsia felis URRWXCal2
HLA-B*45:06 = experiment: as above; settings: source organism: Rickettsia felis URRWXCal2
HLA-B*40:13 = experiment: as above; settings: source organism: Rickettsia felis URRWXCal2
HLA-C*06:02 = experiment: as above; settings: source organism: Rickettsia felis URRWXCal2
HLA-A*80:01 = experiment: IEDB peptide-MHC binding, purified MHC/direct/fluorescence; filed as Kd, often an IC50 or EC50 that approximates it; ≥ and ≤ were set here for values at or beyond the usual limits of such assays; settings: source organism: Human immunodeficiency virus 1
HLA-B*57:01 = experiment: IEDB peptide-MHC binding, purified MHC/competitive/fluorescence; filed as Kd, often an IC50 or EC50 that approximates it; ≥ and ≤ were set here for values at or beyond the usual limits of such assays; settings: source organism: Human immunodeficiency virus 1
HLA-A*26:01 = experiment: as above; settings: source organism: Human immunodeficiency virus 1
HLA-B*08:01 [2] = experiment: as above; settings: source organism: Human immunodeficiency virus 1
HLA-A*01:01 [3] = experiment: as above; settings: source organism: Human immunodeficiency virus 1
HLA-A*30:01 = experiment: as above; settings: source organism: Human immunodeficiency virus 1
HLA-B*15:09 = experiment: as above; settings: source organism: Human immunodeficiency virus 1
HLA-B*38:01 = experiment: as above; settings: source organism: Human immunodeficiency virus 1
HLA-B*15:17 = experiment: as above; settings: source organism: Human immunodeficiency virus 1
HLA-A*25:01 = experiment: IEDB peptide-MHC binding, purified MHC/competitive/fluorescence; ≥ and ≤ were set here for values at or beyond the usual limits of such assays; settings: source organism: Homo sapiens
HLA-B*07:02 = experiment: as above; settings: source organism: Homo sapiens
HLA-A*68:02 = experiment: as above; settings: source organism: Homo sapiens
HLA-B*53:01 = experiment: as above; settings: source organism: Homo sapiens
HLA-B*58:01 = experiment: as above; settings: source organism: Homo sapiens
HLA-B*18:01 = experiment: as above; settings: source organism: Homo sapiens
HLA-A*29:02 = experiment: as above; settings: source organism: Homo sapiens
HLA-B*51:01 = experiment: as above; settings: source organism: Homo sapiens
HLA-A*24:02 [4] = experiment: as above; settings: source organism: Homo sapiens
HLA-B*37:01 = experiment: as above; settings: source organism: Homo sapiens
HLA-B*44:03 = experiment: as above; settings: source organism: Homo sapiens
HLA-B*08:01 [5] = experiment: as above; settings: source organism: Homo sapiens
HLA-A*03:01 = experiment: as above; settings: source organism: Homo sapiens
HLA-A*01:01 [6] = experiment: as above; settings: source organism: Homo sapiens
HLA-A*11:01 = experiment: as above; settings: source organism: Homo sapiens
HLA-A*31:01 = experiment: as above; settings: source organism: Homo sapiens
HLA-B*14:02 = experiment: as above; settings: source organism: Homo sapiens
HLA-B*35:01 = experiment: as above; settings: source organism: Homo sapiens
HLA-B*40:02 = experiment: as above; settings: source organism: Homo sapiens
HLA-A*02:01 = experiment: as above; settings: source organism: Homo sapiens
HLA-A*01:01 [7] = experiment: IEDB peptide-MHC binding, purified MHC/competitive/radioactivity; ≥ and ≤ were set here for values at or beyond the usual limits of such assays; settings: source organism: Human papillomavirus 16

Kd (HLA-C*01:02): 3.9 nM
Sequence: ELHDHGVSSL

Sequence: FFFDIDLLL
IC50 (HLA-A*24:02 [1]): ≥ 333000 nM

Sequence: FMYALSRAF
Kd (HLA-A*32:15): 27.7 nM
Kd (HLA-B*15:42): ≥ 5000 nM
Kd (HLA-B*46:01): 6.6 nM
Kd (HLA-B*15:02): 2.2 nM
Kd (HLA-C*14:02): ≤ 0.1 nM
Kd (HLA-B*83:01): ≥ 5000 nM
Kd (HLA-B*27:20): ≤ 0.1 nM
Kd (HLA-A*32:07): 493 nM
Kd (HLA-B*45:06): ≥ 5000 nM
Kd (HLA-B*40:13): 4.5 nM
Kd (HLA-C*06:02): 64.5 nM

Sequence: GTEEIRSLF
Kd (HLA-A*80:01): ≥ 20000 nM
Kd (HLA-B*57:01): 347 nM
Kd (HLA-A*26:01): ≥ 20000 nM
Kd (HLA-B*08:01 [2]): ≥ 20000 nM
Kd (HLA-A*01:01 [3]): ≥ 20000 nM
Kd (HLA-A*30:01): 11000 nM
Kd (HLA-B*15:09): ≥ 20000 nM
Kd (HLA-B*38:01): ≥ 20000 nM
Kd (HLA-B*15:17): 223 nM

IC50 (HLA-A*25:01): ≥ 20000 nM
IC50 (HLA-B*07:02): 562 nM
IC50 (HLA-A*68:02): ≥ 20000 nM
IC50 (HLA-B*53:01): 851 nM
IC50 (HLA-B*58:01): ≥ 20000 nM
IC50 (HLA-B*18:01): ≥ 20000 nM
IC50 (HLA-A*29:02): ≥ 20000 nM
IC50 (HLA-B*51:01): ≥ 20000 nM
IC50 (HLA-A*24:02 [4]): 1110 nM
IC50 (HLA-B*37:01): ≥ 20000 nM
IC50 (HLA-B*44:03): ≥ 20000 nM
IC50 (HLA-B*08:01 [5]): ≥ 20000 nM
IC50 (HLA-A*03:01): ≥ 20000 nM
IC50 (HLA-A*01:01 [6]): ≥ 20000 nM
IC50 (HLA-A*11:01): ≥ 20000 nM
IC50 (HLA-A*31:01): ≥ 20000 nM
IC50 (HLA-B*14:02): ≥ 20000 nM
IC50 (HLA-B*35:01): 47.7 nM
IC50 (HLA-B*40:02): ≥ 20000 nM
IC50 (HLA-A*02:01): ≥ 20000 nM
Sequence: LPSCPTNFCIF

Sequence: QVDYYGLYY
IC50 (HLA-A*01:01 [7]): 18 nM
